From patent publication US20260374739A1, “SMALL MOLECULAR WEIGHT CHEMICAL COMPOUND TO ANTAGONIZE EPH-EPHRIN TETRAMERIZATION AND INHIBIT BIDIRECTIONAL SIGNALING” (THE BOARD OF REGENTS OF THE UNIVERSITY OF TEXAS SYSTEM, priority 2022, published 2026)
Like-named read-outs stand apart in the source and are kept apart here. Values belong to the molecule of their own block, whether it stands above or below them.

Experiments:
human EphrinB1 = test: Octet binding kinetics, EphB to immobilized human EphrinB1
Description: (§1) Studies were conducted to confirm that A20 chemicals can effectively target the human Eph/Ephrin proteins. Octet system was used to first characterize the biophysical interactions of the human B class Eph and Ephrin proteins, and then was tested to assess how A20 may disrupt the interactions. Since the human and rodent proteins are highly conserved, and essentially identical, with EphB2 sharing 99.5% identity between human and mouse, with only 5 of ~1,000 amino acids different, any species-specific differences were not anticipated. Therefore, commercially available human EphrinB1-Fc (EB1), EphrinB2-Fc (EB2), and EphrinB3-Fc (EB3) ectodomain proteins were sparsely immobilized onto biosensors and then exposed to 50 nM of soluble human EphB1-His, EphB2-His, and EphB4-His ectodomains for 800 sec association and 1,000 sec dissociation steps with a total of nine different interactions analyzed. In the absence of A20 chemical, the immobilized human EphrinB proteins bound to their appropriate human EphB target proteins; with EphrinB1 only bound EphB1 and EphB2, EphrinB2 bound all three EphB1, EphB2, and EphB4, and EphrinB3 only bound EphB1 and EphB2 (FIG. 19A-19B).
(§2) While the binding kinetics described above for the various human EphB-EphrinB interactions are complicated and show clear differences, all are extremely high affinity interactions with KD values in the low nanomolar to picomolar range (Table 2). Octet software allows for detailed biophysical analysis of the sensorgram data and first attempts to fit the information to equations that follow rather standard binding characteristics, most typified by either a classic 1:1 binding type interaction (like formation of a simple receptor-ligand dimer) or something more complex/heterologous involving 2:1 binding type interactions (like Eph-Ephrin dimer and tetramer). Based on the information contained in the sensorgram run under analysis, the Octet software will attempt to draw curves to fit the data to 1:1 and 2:1 binding equations. […] The resulting curve fits are not always perfect, especially for such complex interactions as the Eph/Ephrin system. As such, while the EphB2-EB2 and EphB4-EB2 data fit a 2:1 curve fairly well, the EphB1-EB2 interaction fits neither 1:1 or 2:1 well and the R2 values of this interaction reflects this. The interaction of EB1 with its two target proteins is more divergent. […] The EphB1-EB3 and EphB2-EB3 interactions are like that for EphB1-EB1, clear 1:1 curve fits with a slow gradual on rate of association followed by no off rate in dissociation.

human EphrinB2 = test: Octet binding kinetics, EphB to immobilized human EphrinB2
Description: as §1, §2

human EphrinB3 = test: Octet binding kinetics, EphB to immobilized human EphrinB3; details: for Kd: 2:1 fit
Description: as §1, §2

[1] = 2:1 fit, in parentheses R2 value, read-out: KD2
[2] = in parentheses R2 value, read-out: KD
[3] = in parentheses R2 value, read-out: KD2

- KD (binding in words) (human EphrinB1): no binding
- Kd (human EphrinB2; [1]): 42 nM
- Kd (human EphrinB2; 2:1 fit, read-out: KD1): 0.35 nM
- Kd (human EphrinB2; [2]): 1.8 nM
- KD (binding in words) (human EphrinB3): no binding
B1: EphB4: soluble human EphB4-His ectodomain (protein, UniProt P54760 16-539, looked up)
extracellular domain: LEETLLNTKLETADLKWVTFPQVDGQWEELSGLDEEQHSVRTYEVCDVQRAPGQAHWLRTGWVPRRGAVHVYATLRFTMLECLSLPRAGRSCKETFTVFYYESDADTATALTPAWMENPYIKVDTVAAEHLTRKRPGAEATGKVNVKTLRLGPLSKAGFYLAFQDQGACMALLSLHLFYKKCAQLTVNLTRFPETVPRELVVPVAGSCVVDAVPAPGPSPSLYCREDGQWAEQPVTGCSCAPGFEAAEGNTKCRACAQGTFKPLSGEGSCQPCPANSHSNTIGSAVCQCRVGYFRARTDPRGAPCTTPPSAPRSVVSRLNGSSLHLEWSAPLESGGREDLTYALRCRECRPGGSCAPCGGDLTFDPGPRDLVEPWVVVRGLRPDFTYTFEVTALNGVSSLATGPVPFEPVNVTTDREVPPAVSDIRVTRSSPSSLSLAWAVPRAPSGAVLDYEVKYHEKGAEGPSSVRFLKTSENRAELRGLKRGASYLVQVRARSEAGYGPFGQEHHSQTQLDESEGWREQLA
modifications: extracellular domain His tag
notes: soluble human EphB4-His ectodomain

- Kd (human EphrinB2; [1]): 27 nM
- Kd (human EphrinB2; 2:1 fit, read-out: KD1): < 0.001 nM
- Kd (human EphrinB2; [2]): 4.3 nM
- Kd (human EphrinB3; [3]): 0.0012 nM
- Kd (human EphrinB3; read-out: KD1): 0.0014 nM
B2: EphB1: soluble human EphB1-His ectodomain (protein, UniProt P54762 18-540, looked up)
extracellular domain: MEETLMDTRTATAELGWTANPASGWEEVSGYDENLNTIRTYQVCNVFEPNQNNWLLTTFINRRGAHRIYTEMRFTVRDCSSLPNVPGSCKETFNLYYYETDSVIATKKSAFWSEAPYLKVDTIAADESFSQVDFGGRLMKVNTEVRSFGPLTRNGFYLAFQDYGACMSLLSVRVFFKKCPSIVQNFAVFPETMTGAESTSLVIARGTCIPNAEEVDVPIKLYCNGDGEWMVPIGRCTCKPGYEPENSVACKACPAGTFKASQEAEGCSHCPSNSRSPAEASPICTCRTGYYRADFDPPEVACTSVPSGPRNVISIVNETSIILEWHPPRETGGRDDVTYNIICKKCRADRRSCSRCDDNVEFVPRQLGLTECRVSISSLWAHTPYTFDIQAINGVSSKSPFPPQHVSVNITTNQAAPSTVPIMHQVSATMRSITLSWPQPEQPNGIILDYEIRYYEKEHNEFNSSMARSQTNTARIDGLRPGMVYVVQVRARTVAGYGKFSGKMCFQTLTDDDYKSELREQLP
modifications: extracellular domain His tag
notes: soluble human EphB1-His ectodomain

- Kd (human EphrinB1; [1]): 40 nM
- Kd (human EphrinB1; 2:1 fit, read-out: KD1): 41 nM
- Kd (human EphrinB1; [2]): 8.57 nM
- Kd (human EphrinB2; [1]): 16.8 nM
- Kd (human EphrinB2; 2:1 fit, read-out: KD1): 5.9 nM
- Kd (human EphrinB2; [2]): 4.84 nM
- Kd (human EphrinB3; [3]): 0.0018 nM
- Kd (human EphrinB3; read-out: KD1): 0.0018 nM
B3: EphB2: soluble human EphB2-His ectodomain (protein, UniProt P29323 19-543, looked up)
extracellular domain: VEETLMDSTTATAELGWMVHPPSGWEEVSGYDENMNTIRTYQVCNVFESSQNNWLRTKFIRRRGAHRIHVEMKFSVRDCSSIPSVPGSCKETFNLYYYEADFDSATKTFPNWMENPWVKVDTIAADESFSQVDLGGRVMKINTEVRSFGPVSRSGFYLAFQDYGGCMSLIAVRVFYRKCPRIIQNGAIFQETLSGAESTSLVAARGSCIANAEEVDVPIKLYCNGDGEWLVPIGRCMCKAGFEAVENGTVCRGCPSGTFKANQGDEACTHCPINSRTTSEGATNCVCRNGYYRADLDPLDMPCTTIPSAPQAVISSVNETSLMLEWTPPRDSGGREDLVYNIICKSCGSGRGACTRCGDNVQYAPRQLGLTEPRIYISDLLAHTQYTFEIQAVNGVTDQSPFSPQFASVNITTNQAAPSAVSIMHQVSRTVDSITLSWSQPDQPNGVILDYELQYYEKELSEYNATAIKSPTNTVTVQGLKAGAIYVFQVRARTVAGYGRYSGKMYFQTMTEAEYQTSIQEKLPL
modifications: extracellular domain His tag
notes: soluble human EphB2-His ectodomain
